The data set deals with the molecule itself. Nature of the data set: native gel or EMSA. Background: A gel shift assay detects complexes by their altered migration in electrophoresis.

The values that follow come from article PMC3211139 (Molecular microbiology, 2011).

“And” between values parts separate entries of the source, which are not always exact repeats. Identical values can stand only once.

B1: AtxA-His (natural protein)
chain: MLTPISIEKEHIRLINLLHFINEQNRWFTIKELSDYLQVADKTVRKYLKLLEDEIPPSWNLLVQKGKGIYLKKPLNESLSFVESKILRKSLNLQICEELVFKKNSMQSLAQKLHLQVGALYPIINQINYDIQSSHLNIKKKPLEISGREQDVRVFMLRLYCNIPNDYWPFPYINKQNITDLINKMEKILNVQMYTYSKHKLCVLFAITISRLLSGNTIDNVSGLILVNKNDDHYKTVASITSELQNSFGVTLHETEISFLALALLLSLGNSITTDSNKTLTSYKKTIMPLAKEITKGIEHKLQLGINYDESFLTYVVLIIKKALDKNFIQYYNYNIKFIRHIKQRHPNTFNTIQECISNLNYTVYSHFDCYEISLLTMHFETQRMLFKNNPKKIYVYTSQGCIHREYISALLEKRYNGLIKIVRNTIINLTNESLQDMEIDIIISNVNLPIKNIPIVQISEFPTERDFHEIKKII
One may read the stoichiometry N as a count of units in the complex or per binding partner. As for B1, the “stoichiometry N” value is 2 and 4.
